One substance from patent publication US20090215861A1 can be followed below.

The assay concerns the target CCR3 chemokine receptor (human) (UniProt P51677). Briefly: cell-based or functional assay.
Sequence of UniProt P51677 (P51677 whole entry): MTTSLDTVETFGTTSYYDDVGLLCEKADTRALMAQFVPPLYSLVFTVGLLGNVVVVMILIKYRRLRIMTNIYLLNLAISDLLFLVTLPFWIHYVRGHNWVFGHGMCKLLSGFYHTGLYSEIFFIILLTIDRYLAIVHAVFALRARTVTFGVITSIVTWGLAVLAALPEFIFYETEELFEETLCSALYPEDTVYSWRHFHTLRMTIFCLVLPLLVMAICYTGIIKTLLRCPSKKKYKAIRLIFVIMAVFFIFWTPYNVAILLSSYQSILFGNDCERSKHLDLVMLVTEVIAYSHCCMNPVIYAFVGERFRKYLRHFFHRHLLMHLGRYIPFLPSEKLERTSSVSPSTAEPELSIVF

Substance “rhEotaxin (Biosource, cat# PMC1434) (from UniProt P51671 24-97) (ligand)” yielded a chemotactic response of purified human eosinophils to eotaxin; decrease of migration after antisense oligonucleotides against CCR3 of 55.6%.
